Three molecules from patent CN108290942A can be followed below.

To fix the notation:
B1: 抗信号素3A scFv抗体片段 F11 (scFv, part only; not given: linker and tags, not shown: large carriers)
scFv, part: EVQLLESGGGLVQTGGSLRLSCAASGFTFSDYAMSWVRQAPGKGLEWVSWIYYDSGSKYYADSVKGRFTISRDNSKNTLYLQMNSLRAEDTAVYYCAKLNGDFDYWGQGTLVTVSSQSVLTQPPSASGTPGQRVTISCSGSSSNIGNNDVSWYQQLPGTAPKLLIYADSHRPSGVPDRFSGSKSGTSASLAISGLRSEDEADYYCGAWDSSLSGYVFGGGTKLTVL
B2: 抗信号素3A scFv抗体片段 C10 (scFv, part only; not given: linker and tags, not shown: large carriers)
scFv, part: EVQLLESGGGLVQPGGSLRLSCAASGFTFSDYAMSWVRQAPGKGLEWVSGIYYDDSSQYYADSVEGRFTISRDNSKNTLYLQMNSLRAEDTAVYYCARYLGLFDYWGQGTLVTVSSQSVLTQPPSASGTPGQRVTISCSGSSSNIGNNSVNWYQQLPGTAPKLLIYSDSQRPSGVPDRFSGSKSGTSASLAISGLRSEDEADYYCGSWDYSLSAYVFGGGTKLTVL
B3: 抗信号素3A scFv抗体片段 A08 (scFv, part only; not given: linker and tags, not shown: large carriers)
scFv, part: EVQLLESGGGLVQPGGSLRLSCAASGFTFSDYAMSWVRQAPGKGLEWVSGIYYDDSSQYYADSVKGRFTISRDNSKNTLYLQMNSLRAEDTAVYYCAKNLGRFDYWGQGTLVTVSSQSVLTQPPSASGTPGQRVTISCTGSSSNIGSNAVTWYQQLPGTAPKLLIYDDNHRPSGVPDRFSGSKSGTSASLAISGLRSEDEADYYCGAWDDSLSAYVFGGGTKLTVL

The assay addresses T1, 细胞实际分泌的信号素3A (UniProt Q14563).
T1 sequence (looked up): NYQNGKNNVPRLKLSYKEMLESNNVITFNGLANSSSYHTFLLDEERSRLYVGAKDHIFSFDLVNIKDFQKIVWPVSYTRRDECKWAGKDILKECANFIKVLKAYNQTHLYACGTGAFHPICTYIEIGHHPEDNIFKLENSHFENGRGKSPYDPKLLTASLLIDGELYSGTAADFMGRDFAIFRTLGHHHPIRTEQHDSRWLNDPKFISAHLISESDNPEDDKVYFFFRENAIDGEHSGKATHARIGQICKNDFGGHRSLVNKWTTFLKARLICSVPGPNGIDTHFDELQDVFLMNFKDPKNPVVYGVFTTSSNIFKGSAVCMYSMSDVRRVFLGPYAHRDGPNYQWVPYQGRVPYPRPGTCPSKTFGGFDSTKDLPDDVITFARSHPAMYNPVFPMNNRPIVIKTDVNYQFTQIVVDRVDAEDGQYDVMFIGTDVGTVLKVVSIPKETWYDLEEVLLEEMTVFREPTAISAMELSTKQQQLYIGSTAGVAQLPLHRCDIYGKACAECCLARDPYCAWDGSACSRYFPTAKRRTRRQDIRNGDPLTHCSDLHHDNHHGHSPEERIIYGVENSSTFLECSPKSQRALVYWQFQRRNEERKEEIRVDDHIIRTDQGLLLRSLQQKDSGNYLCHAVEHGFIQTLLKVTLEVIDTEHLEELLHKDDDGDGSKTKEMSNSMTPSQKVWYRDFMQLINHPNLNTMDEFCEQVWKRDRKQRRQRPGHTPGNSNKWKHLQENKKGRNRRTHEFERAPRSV
Briefly: cell-based or functional assay.
B1 returned a 细胞生长速度 (EZ-Cytox, 131细胞, 50μg/ml scFv, 4天) of 70%; a 细胞迁移 (transwell, 83细胞) of 28%; a 细胞迁移 (transwell, 131细胞) of 7%; a 细胞迁移 (transwell, U87-MG细胞, 50μg/ml scFv) of 74%.
The molecule B2 had a 细胞生长速度 (EZ-Cytox, 131细胞, 50μg/ml scFv, 4天) of 70%; a 细胞迁移 (transwell, 83细胞) of 44%; a 细胞迁移 (transwell, 131细胞) of 19%; a 细胞迁移 (transwell, U87-MG细胞, 50μg/ml scFv) of 70%.
With B3, the 细胞生长速度 (EZ-Cytox, 131细胞, 50μg/ml scFv, 4天) stood at 70%; the 细胞迁移 (transwell, 83细胞) turned out to be 21%; the 细胞迁移 (transwell, 131细胞) is 11%; the 细胞迁移 (transwell, U87-MG细胞, 50μg/ml scFv) is 78%.
